Reference: the Immune Epitope Database (IEDB)
pIC50: −log10 of the molar value.

Legend:
[1] = target: HLA-A*02:01; assay: IEDB peptide-MHC binding, cellular MHC/competitive/fluorescence; ≥ and ≤ were set here for values at or beyond the usual limits of such assays
[2] = target: HLA-A*02:03; assay: as above
[3] = target: HLA-A*02:06; assay: as above
[4] = target: HLA-A*68:02; assay: IEDB peptide-MHC binding, purified MHC/competitive/radioactivity; ≥ and ≤ were set here for values at or beyond the usual limits of such assays
[5] = target: HLA-A*02:02; assay: as above
[6] = target: HLA-A*68:02; assay: IEDB peptide-MHC binding, cellular MHC/competitive/fluorescence; ≥ and ≤ were set here for values at or beyond the usual limits of such assays
[7] = target: HLA-A*02:01; assay: IEDB peptide-MHC binding, purified MHC/competitive/radioactivity; ≥ and ≤ were set here for values at or beyond the usual limits of such assays
[8] = target: HLA-A*02:06; assay: as above
[9] = source organism: Vaccinia virus WR
[10] = source organism: Mammarenavirus choriomeningitidis
[11] = source organism: Influenza A virus
[12] = source organism: Mammarenavirus brazilense
[13] = source organism: Mammarenavirus guanaritoense

## VTTNNLLEQL
[1]; [9]
  pIC50: 4.67
[2]; [9]
  pIC50: 4.75
[3]; [9]
  pIC50: 5.23
[4]; [9]
  pIC50: 5.53
[5]; [9]
  pIC50: 5.33

## VQLSNNKYVL
[2]; [9]
  pIC50: 5.02
[6]; [9]
  pIC50: ≤ 4.15
[7]; [9]
  pIC50: 5.34
[8]; [9]
  pIC50: 6.77
[5]; [9]
  pIC50: 6.54

## SCDDVVFGI
[1]; [10]
  pIC50: 5.25
[2]; [10]
  pIC50: 4.30
[3]; [10]
  pIC50: 4.84
[4]; [10]
  pIC50: 6.51
[5]; [10]
  pIC50: 5.67

## SVDVDIYDA
[1]; [9]
  pIC50: 4.88
[2]; [9]
  pIC50: 4.93
[8]; [9]
  pIC50: 6.02
[4]; [9]
  pIC50: 6.46
[5]; [9]
  pIC50: 5.92

## WLRAKRKPAM
[1]; [9]
  pIC50: 4.65
[2]; [9]
  pIC50: 4.70
[3]; [9]
  pIC50: 4.92
[4]; [9]
  pIC50: 5.54
[5]; [9]
  pIC50: 5.33

## IASKINNNRI
[1]; [9]
  pIC50: 4.51
[2]; [9]
  pIC50: 4.73
[3]; [9]
  pIC50: 5.03
[4]; [9]
  pIC50: 6.79
[5]; [9]
  pIC50: 6.14

## DIPTFNSLNT
[1]; [9]
  pIC50: 4.64
[2]; [9]
  pIC50: 4.78
[8]; [9]
  pIC50: 7.35
[4]; [9]
  pIC50: 6.05
[5]; [9]
  pIC50: 5.69

## TTPLISFFGL
[1]; [9]
  pIC50: 4.56
[2]; [9]
  pIC50: 4.76
[8]; [9]
  pIC50: 5.47
[4]; [9]
  pIC50: 6.70
[5]; [9]
  pIC50: 5.30

## TVSSFQDIL
[1]; [11]
  pIC50: 4.39
[2]; [11]
  pIC50: 5.05
[3]; [11]
  pIC50: 4.86
[4]; [11]
  pIC50: 6.07
[5]; [11]
  pIC50: 6.34

## VVYHDDDNTT
[2]; [9]
  pIC50: 4.90
[6]; [9]
  pIC50: 4.56
[7]; [9]
  pIC50: 5.53
[8]; [9]
  pIC50: 5.41
[5]; [9]
  pIC50: 5.73

## VLFQNWGI
[2]; [11]
  pIC50: 4.99
[6]; [11]
  pIC50: 4.26
[7]; [11]
  pIC50: 6.07
[8]; [11]
  pIC50: 5.58
[5]; [11]
  pIC50: 5.81

## NIVTDLENRL
[1]; [9]
  pIC50: 4.71
[2]; [9]
  pIC50: 4.76
[6]; [9]
  pIC50: 4.88
[8]; [9]
  pIC50: 5.81
[5]; [9]
  pIC50: 6.58

## YAVLSEYET
[1]; [9]
  pIC50: 4.43
[2]; [9]
  pIC50: 4.45
[8]; [9]
  pIC50: 5.88
[4]; [9]
  pIC50: 6.61
[5]; [9]
  pIC50: 5.75

## DTSNNIAEYI
[1]; [9]
  pIC50: 5.20
[2]; [9]
  pIC50: 5.04
[3]; [9]
  pIC50: 4.34
[4]; [9]
  pIC50: 7.33
[5]; [9]
  pIC50: 5.48

## DTCLLAISA
[1]; [9]
  pIC50: 5.17
[2]; [9]
  pIC50: 5.19
[3]; [9]
  pIC50: 4.60
[4]; [9]
  pIC50: 6.50
[5]; [9]
  pIC50: 5.36

## KQIMECSRML
[2]; [9]
  pIC50: 4.53
[6]; [9]
  pIC50: 5.13
[7]; [9]
  pIC50: 6.45
[8]; [9]
  pIC50: 7.22
[5]; [9]
  pIC50: 7.26

## GARVIWMDA
[1]; [9]
  pIC50: 5.11
[2]; [9]
  pIC50: 5.04
[6]; [9]
  pIC50: 4.92
[8]; [9]
  pIC50: 5.67
[5]; [9]
  pIC50: 5.34

## IASILSLET
[2]; [9]
  pIC50: 5.13
[6]; [9]
  pIC50: 5.11
[7]; [9]
  pIC50: 5.60
[8]; [9]
  pIC50: 6.50
[5]; [9]
  pIC50: 5.44

## NQLDSSNKSM
[1]; [9]
  pIC50: 4.77
[2]; [9]
  pIC50: 4.52
[6]; [9]
  pIC50: 4.28
[8]; [9]
  pIC50: 6.20
[5]; [9]
  pIC50: 5.75

## NLEELTTVFI
[1]; [9]
  pIC50: 5.13
[2]; [9]
  pIC50: 5.19
[3]; [9]
  pIC50: 4.91
[4]; [9]
  pIC50: 5.89
[5]; [9]
  pIC50: 6.38

## KNATWCLEV
[1]; [12]
  pIC50: 4.89
[2]; [12]
  pIC50: 5.15
[8]; [12]
  pIC50: 5.64
[4]; [12]
  pIC50: 5.86
[5]; [12]
  pIC50: 5.79

## VMDTLNGIMM
[2]; [9]
  pIC50: 5.29
[6]; [9]
  pIC50: 5.16
[7]; [9]
  pIC50: 7.48
[8]; [9]
  pIC50: 6.39
[5]; [9]
  pIC50: 8.12

## LCFWSAIFFT
[1]; [13]
  pIC50: 5.25
[2]; [13]
  pIC50: 4.52
[3]; [13]
  pIC50: 4.46
[4]; [13]
  pIC50: 5.74
[5]; [13]
  pIC50: 5.58

## WSAIFFTTSL
[1]; [13]
  pIC50: 5.04
[2]; [13]
  pIC50: 5.16
[8]; [13]
  pIC50: 5.85
[4]; [13]
  pIC50: 6.52
[5]; [13]
  pIC50: 5.70

## CTSEIQNVT
[1]; [9]
  pIC50: 4.87
[2]; [9]
  pIC50: 5.29
[3]; [9]
  pIC50: 4.99
[4]; [9]
  pIC50: 7.05
[5]; [9]
  pIC50: 6.73

## FVETLARSI
[1]; [11]
  pIC50: 5.28
[2]; [11]
  pIC50: 5.21
[6]; [11]
  pIC50: 4.93
[8]; [11]
  pIC50: 5.36
[5]; [11]
  pIC50: 6.42

## LTSVDIETA
[1]; [9]
  pIC50: 4.62
[2]; [9]
  pIC50: 4.94
[8]; [9]
  pIC50: 6.51
[4]; [9]
  pIC50: 5.91
[5]; [9]
  pIC50: 5.31

## LSYSQTMLL
[1]; [10]
  pIC50: 5.08
[2]; [10]
  pIC50: 4.95
[6]; [10]
  pIC50: 5.17
[8]; [10]
  pIC50: 5.43
[5]; [10]
  pIC50: 5.68

## SVDIETAIRA
[1]; [9]
  pIC50: 5.29
[2]; [9]
  pIC50: 5.12
[8]; [9]
  pIC50: 5.99
[4]; [9]
  pIC50: 6.08
[5]; [9]
  pIC50: 5.55

## YVHSLLYSSM
[1]; [9]
  pIC50: 4.54
[2]; [9]
  pIC50: 5.17
[6]; [9]
  pIC50: 5.14
[8]; [9]
  pIC50: 5.65
[5]; [9]
  pIC50: 5.66

## CTMERTNDLT
[1]; [9]
  pIC50: 4.73
[2]; [9]
  pIC50: 4.79
[8]; [9]
  pIC50: 6.00
[4]; [9]
  pIC50: 8.06
[5]; [9]
  pIC50: 5.39

## GILHLILWIL
[1]; [11]
  pIC50: 4.78
[2]; [11]
  pIC50: 5.11
[6]; [11]
  pIC50: 5.10
[8]; [11]
  pIC50: 5.60
[5]; [11]
  pIC50: 5.35

## IASGQRCHFI
[1]; [9]
  pIC50: 4.74
[2]; [9]
  pIC50: 5.08
[8]; [9]
  pIC50: 6.59
[4]; [9]
  pIC50: 5.38
[5]; [9]
  pIC50: 6.28
